US20260209347A1 (BIORAY PHARMACEUTICAL, published 2026)
Like-named read-outs stand apart in the source and are kept apart here.

Key:
[1] = molecular target: T1, human NKG2A/CD94 on cells (CHOK1-hNKG2A/CD94) (human, UniProt P26715 1-233; Q13241 1-179); test: FACS on human NKG2A overexpressing cell line
T1 construct: whole, on cells; the killing assays (functional rows) used NK92 cells or primary human NK cells that carry the receptor; also called human NKG2A overexpressing cells; human NKG2A overexpressing cell line
Protocol: (§1) Human NKG2A overexpressing cells (CHOK1-hNKG2A/CD94), cyno NKG2A overexpressing cells (CHOK1-cynoNKG2A/CD94), and human NKG2C overexpressing cells (CHOK1-hNKG2C/CD94) were digested with TrypLE (purchased from Gibco). Cells were collected by centrifugation, then resuspended to 2E6/mL with FACS buffer (PBS+2% FBS). The cells were added to a 96-well cell plate at 100 μL per well, and the supernatant was discarded after centrifugation. The antibody was gradiently diluted with FACS buffer (initial concentration of 200 nM, 5-fold dilution, including point 0, a total of 10 concentration points), added to the cells at 100 μL/well, mixed, and incubated at 4° C. for 1 hour. The incubated cells were centrifuged at 300 g for 5 min and washed twice with FACS buffer. Secondary antibody, anti-human IgG fluorescent secondary antibody 488 (purchased from Thermofisher A-11013), was added, incubated at 4° C. for one hour, then the cells were washed twice with FACS buffer, resuspended in PBS and analyzed by FACS instrument.
The binding activity of humanized antibodies to human NKG2A overexpressing cell line was detected by FACS (refer to Example 4 for FACS). The maximum MFIs of cAb-43 and its humanized mutant antibodies to human NKG2A overexpressing cell line were greater than that of the Z270 control antibody.

[2] = molecular target: T1, human NKG2A/CD94 on cells …; test: cell-based or functional assay
[3] = molecular target: T1, human NKG2A/CD94 on cells …; test: FACS on CHOK1-hNKG2A/CD94 cells
Protocol: as §1

[4] = molecular target: T2, human NKG2C/CD94 on cells (CHOK1-hNKG2C/CD94) (human, UniProt P26717 1-231; Q13241 1-179); test: FACS on CHOK1-hNKG2C/CD94 cells
T2 construct: whole, on cells; also called human NKG2C overexpressing cells; human NKG2C overexpressing cell line
Protocol: as §1

[5] = molecular target: T1, human NKG2A/CD94 on cells …; test: cell-based or functional assay; remark: listed apart in the source

T1 sequence (P26715 whole entry, chain 1 of 2): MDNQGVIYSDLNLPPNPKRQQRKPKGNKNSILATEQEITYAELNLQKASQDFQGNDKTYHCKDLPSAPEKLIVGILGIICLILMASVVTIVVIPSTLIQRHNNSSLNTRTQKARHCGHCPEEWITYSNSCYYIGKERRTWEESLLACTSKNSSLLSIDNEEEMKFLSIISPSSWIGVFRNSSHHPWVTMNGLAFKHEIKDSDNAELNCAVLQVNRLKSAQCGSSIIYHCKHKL
T1 sequence (Q13241 whole entry, chain 2 of 2): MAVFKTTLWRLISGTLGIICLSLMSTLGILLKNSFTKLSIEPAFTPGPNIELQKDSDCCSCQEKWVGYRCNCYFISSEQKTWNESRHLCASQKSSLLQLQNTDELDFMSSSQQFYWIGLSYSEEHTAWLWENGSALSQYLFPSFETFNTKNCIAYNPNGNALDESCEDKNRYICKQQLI
T2 sequence (P26717 whole entry, chain 1 of 2): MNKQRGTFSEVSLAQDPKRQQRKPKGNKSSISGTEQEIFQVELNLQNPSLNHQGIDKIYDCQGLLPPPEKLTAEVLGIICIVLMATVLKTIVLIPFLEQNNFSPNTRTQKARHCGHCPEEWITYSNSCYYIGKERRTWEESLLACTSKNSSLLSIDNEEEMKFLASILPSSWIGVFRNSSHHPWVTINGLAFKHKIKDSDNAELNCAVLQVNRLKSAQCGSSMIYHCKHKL
T2 sequence (Q13241 whole entry, chain 2 of 2): as the sequence (Q13241 whole entry, chain 2 of 2) above

B1: hu-52VH-13/VL-11 (antibody, human IgG4 S228P, kappa, V domains shown)
VH: QVQLVQSGAEVKKPGASVKVSCKASGFNIQNTYLHWVRQAPGQGLEWMGRIDPANDNIKYVPKFQGRVTMTADTSTNTAYMELSSLRSEDTAVYYCTRHGLFYEGWFAYWGQGTLVTVSS
VL: DIQLTQSPSSLSASVGDRVTITCSVSSSISSSNLHWYQQKPGKAPKPLIYGTSNLASGVPSRFSGSGSGTDYTLTISSLQPEDAATYYCQQWSSYPYTFGQGTKLEIKR
notes: full-length humanized antibody; also called hu-52 humanized antibody
In the case of B1, the “Maximum MFI” value [1] is reported as 18800 MFI and the “IC50 (nM), killing of LCL721.221 target cells by NK92 cells” value (from here on “IC50 (nM), killing”) [2] is reported as 0.19 nM.

B2: hu-52VH-13/VL-31 (antibody, human IgG4 S228P, kappa, V domains shown)
VH: QVQLVQSGAEVKKPGASVKVSCKASGFNIQNTYLHWVRQAPGQGLEWMGRIDPANDNIKYVPKFQGRVTMTADTSTNTAYMELSSLRSEDTAVYYCTRHGLFYEGWFAYWGQGTLVTVSS
VL: EIVLTQSPATLSLSPGERATLSCSVSSSISSSNLHWYQQKPGQAPRPLIYGTSNLASGIPARFSGSGSGTDYTLTISSLEPEDAAVYYCQQWSSYPYTFGQGTKLEIKR
notes: as for B1
In the case of B2, the “Maximum MFI” value [1] is reported as 18800 MFI and the “IC50 (nM), killing” value [2] is reported as 0.16 nM.

B3: hu-52VH-33/VL-11 (antibody, human IgG4 S228P, kappa, V domains shown)
VH: QVQLVQSGAEVKKPGSSVKVSCKASGFNIQNTYLHWVRQAPGQGLEWMGRIDPANDNIKYVPKFQGRVTITADTSTNTAYMELSSLRSEDTAVYYCTRHGLFYEGWFAYWGQGTLVTVSS
VL: DIQLTQSPSSLSASVGDRVTITCSVSSSISSSNLHWYQQKPGKAPKPLIYGTSNLASGVPSRFSGSGSGTDYTLTISSLQPEDAATYYCQQWSSYPYTFGQGTKLEIKR
notes: full-length humanized IgG4 antibody (not the L235E/D265A/R409K IgG4 mutant); also called hu-52 humanized antibody
For B3, the “Maximum MFI” value [1] was 18800 MFI and the “IC50 (nM), killing” value [2] was 0.09 nM.

B4: hu-52VH-33/VL-21 (antibody, human IgG4 S228P, kappa, V domains shown)
VH: QVQLVQSGAEVKKPGSSVKVSCKASGFNIQNTYLHWVRQAPGQGLEWMGRIDPANDNIKYVPKFQGRVTITADTSTNTAYMELSSLRSEDTAVYYCTRHGLFYEGWFAYWGQGTLVTVSS
VL: DIQLTQSPSTLSASVGDRVTITCSVSSSISSSNLHWYQQKPGKAPKPLIYGTSNLASGVPSRFSGSGSGTEYTLTISSLQPDDAATYYCQQWSSYPYTFGQGTKLEIKR
notes: as for B1
In the case of B4, the “Maximum MFI” value [1] is reported as 18000 MFI.

B5: hu-52VH-23/VL-31 (antibody, human IgG4 S228P, kappa, V domains shown)
VH: QVQLVQSGAEVKKPGASVKVSCKASGFNIQNTYLHWVRQAPGQGLEWMGRIDPANDNIKYVPKFQGRVTMTADTSINTAYMELSRLRSDDTAVYYCTRHGLFYEGWFAYWGQGTLVTVSS
VL: EIVLTQSPATLSLSPGERATLSCSVSSSISSSNLHWYQQKPGQAPRPLIYGTSNLASGIPARFSGSGSGTDYTLTISSLEPEDAAVYYCQQWSSYPYTFGQGTKLEIKR
notes: as for B1
For B5, the “Maximum MFI” value [1] was 18100 MFI.

B6: hu-52VH-23/VL-11 (antibody, human IgG4 S228P, kappa, V domains shown)
VH: QVQLVQSGAEVKKPGASVKVSCKASGFNIQNTYLHWVRQAPGQGLEWMGRIDPANDNIKYVPKFQGRVTMTADTSINTAYMELSRLRSDDTAVYYCTRHGLFYEGWFAYWGQGTLVTVSS
VL: DIQLTQSPSSLSASVGDRVTITCSVSSSISSSNLHWYQQKPGKAPKPLIYGTSNLASGVPSRFSGSGSGTDYTLTISSLQPEDAATYYCQQWSSYPYTFGQGTKLEIKR
notes: as for B1
With B6 the “Maximum MFI” value [1] was 18700 MFI and the “IC50 (nM), killing” value [2] was 0.13 nM.

B7: hu-52VH-23/VL-21 (antibody, human IgG4 S228P, kappa, V domains shown)
VH: QVQLVQSGAEVKKPGASVKVSCKASGFNIQNTYLHWVRQAPGQGLEWMGRIDPANDNIKYVPKFQGRVTMTADTSINTAYMELSRLRSDDTAVYYCTRHGLFYEGWFAYWGQGTLVTVSS
VL: DIQLTQSPSTLSASVGDRVTITCSVSSSISSSNLHWYQQKPGKAPKPLIYGTSNLASGVPSRFSGSGSGTEYTLTISSLQPDDAATYYCQQWSSYPYTFGQGTKLEIKR
notes: as for B1
For B7, the “Maximum MFI” value [1] was 18000 MFI and the “IC50 (nM), killing” value [2] was 0.12 nM.

B8: hu-52VH-13/VL-21 (antibody, human IgG4 S228P, kappa, V domains shown)
VH: QVQLVQSGAEVKKPGASVKVSCKASGFNIQNTYLHWVRQAPGQGLEWMGRIDPANDNIKYVPKFQGRVTMTADTSTNTAYMELSSLRSEDTAVYYCTRHGLFYEGWFAYWGQGTLVTVSS
VL: DIQLTQSPSTLSASVGDRVTITCSVSSSISSSNLHWYQQKPGKAPKPLIYGTSNLASGVPSRFSGSGSGTEYTLTISSLQPDDAATYYCQQWSSYPYTFGQGTKLEIKR
notes: as for B1
For B8, the “Maximum MFI” value [1] was 18900 MFI and the “IC50 (nM), killing” value [2] was 0.14 nM.

B9: cAb-14 (antibody, human IgG4 S228P, kappa, V domains shown)
VH: EVQLQQSVAELVRPGASVKLSCTASGFNIKNTYIHWVKQRPEQGLEWIGRIDPANGNTKYAPKFQGKASIIVDTSSNTAYLQLSSLTSEDTAIYYCARYYASSPYYYNMDYWGQGTSVTVSS
VL: DIQMTQSPASLSVSVGETVTITCRASENIYSNLAWYQQKQGKSPQLLVYAATNLADGVPSRFSGSGSGTQYSLKINSLQSEDFGSYYCQHFWGTFTFGSGTKLEIKR
notes: human-mouse chimeric antibody, human IgG4 constant region; also called antibody number 14; NKG2A chimeric antibody
B9: binds [3]; no binding (tested: initial concentration of 200 nM) [4].

B10: cAb-17 (antibody, human IgG4 S228P, kappa, V domains shown)
VH: EVQLQQSVAELVRPGASVKLSCTASGFNIKNTYIDWVKQRPEQGLEWIGNIDPANGNTKYAPKFQGKATITADTSSNTAYVQLSSLTSEDTAIYYCARWGGWDVRFAYWGQGTLVTVSA
VL: DIKMTQSPSSMYASLGERVTITCKASQDINTYLSWFQQKPGKSPKTLIYRANRLVDGVPSRFSGSGSGQNYSLTISSLEYEDMGIYYCLQYDEFPLTFGAGTKLELKR
notes: human-mouse chimeric antibody, human IgG4 constant region; also called antibody number 17; NKG2A chimeric antibody
B10: binds [3]; no binding (tested: initial concentration of 200 nM) [4].

B11: cAb-24 (antibody, human IgG4 S228P, kappa, V domains shown)
VH: EVQLQQSVAELVRPGASVKLSCTASGFNIQNTYMHWVKQRPEQGLEWIGRIDPANGNTKYAPKFQGKATITADTSSNTAYLQLSSLTSEDTAIYYCARYYDSRYGYWGQGTTLTVSS
VL: DIKMTQSPSSMYASLGERVTITCKASQDINSYLSWFQQKPGKSPTTLIYRANRLVDGVPSRFSGSGSGQDYSLTISSLEYEDLGIYFCLQYDEFPWTFGGGTKLEIKR
notes: human-mouse chimeric antibody, human IgG4 constant region; also called antibody number 24; NKG2A chimeric antibody
B11: binds [3]; no binding (tested: initial concentration of 200 nM) [4].

B12: cAb-33 (antibody, human IgG4 S228P, kappa, V domains shown)
VH: EVQLQQSVAELVRPGASVKLSCTASGFNIKNTYMDWVKQRPEQGLEWIGRIDPANGNTKYAPKFQGKATITADTSSNTAYLQLSSLTSEDTAIYYCAREGNWDDWFVYWGQGTLVTVSA
VL: DVLMTQTPLSLPVSLGDQASISCRSSQSIVHSNGNTYLEWFLQKPGQSPKLLIYKVSNRFSGVPDRFSGSGSGTDFTLKISRVEAEDLGVYYCFQGSHVPPTFGGGTKLEIKR
notes: human-mouse chimeric antibody, human IgG4 constant region; also called antibody number 33; NKG2A chimeric antibody
B12: binds [3]; no binding (tested: initial concentration of 200 nM) [4].

B13: cAb-35 (antibody, human IgG4 S228P, kappa, V domains shown)
VH: EVQLQQSVAELVRPGASVKLSCTASGFNIKNTYMDWVKQRPEQGLEWIGRIDPANGNTKHAPKFQGKATITTDTSSNTAYLQLSSLTSEDTAIYYCARWGGWDVRFAYWGQGTLVTVSA
VL: DIKMTQSPSSMYASLGERVTINCQASQDINSYLSWFQQKPGKSPKTLIHRANRLVDGVPSRFSGSGSGQDYSLTISSLEYEDMGIYYCLQFDEFPLTFGAGTKLELKR
notes: human-mouse chimeric antibody, human IgG4 constant region; also called antibody number 35; NKG2A chimeric antibody
B13: binds [3]; no binding (tested: initial concentration of 200 nM) [4].

B14: cAb-9 (antibody, human IgG4 S228P, kappa, V domains shown)
VH: EVQLQQSVAELVRPGASVKLSCTASGFNIQNTYMHWVKERPEQGLEWIGRIDPANGDTEFAPKFQGKATLTTDTSSNTAYLQLSSLTSEDTAIYYCGRERYFYGSRGFAYWGQGTLVTVSA
VL: DILMTQSPPSMSVSLGDTVSITCHASQGISSNIGWLQQKPGKSFKGLIYHGTNLEDGVPSRFSGSGSGADYSLTISSLESEDFADYYCVQYAQFPWTFGGGTKLEIKR
notes: human-mouse chimeric antibody, human IgG4 constant region; also called antibody number 9; NKG2A chimeric antibody
B14: binds [3]; no binding (tested: initial concentration of 200 nM) [4].

B15: hu-43VH-13/VL-11 (antibody, human IgG4 S228P, kappa, V domains shown)
VH: QVQLVQSGAEVKKPGASVKVSCKASGFNIQNTYIHWVRQAPGQGLEWIGRIDPASGSTEYAPKFQGRATITADTSTNTGYMELSSLRSEDTAVYYCARYGNFLYYYSMDYWGQGTLVTVSS
VL: DIVMTQSPLSLPVTPGEPASISCRSNKSLLHSNGNTYLYWFLQKPGQSPQLLIYRMSNLASGVPDRFSGSGSGTDFTLKISRVEAEDVGVYYCMQHLENPYTFGQGTKLEIKR
With B15 the “IC50 (nM), killing” value [5] was 0.37 nM.

B16: cAb-52 (antibody, human IgG4 S228P, kappa, V domains shown)
VH: EVQLQQSVAELVRPGASVKLSCTASGFNIQNTYLHWVKQRPEQGLEWIGRIDPANDNIKYVPKFQGKATITADTSSNTAYLQLSSLTSEDTAIYYCTRHGLFYEGWFAYWGQGTLVTVST
VL: EIVLTQSPALMAASPGEKVTITCSVSSSISSSNLHWYQQKSGTSPKPWIYGTSNLASGVPVRFSGSGSGTSYSLTISSMEAEDAATYYCQQWSSYPYTFGSGTKLEIKR
notes: human-mouse chimeric antibody, human IgG4 constant region; also called antibody number 52; NKG2A chimeric antibody
In the case of B16, the “Maximum MFI” value [1] is reported as 18800 MFI, the binding result [4] is reported as “no binding (tested: initial concentration of 200 nM)” and the “IC50 (nM), killing” value [2] is reported as 0.28 nM.
